Source: the supplement of paper PMC12042874
± gives the uncertainty stated by the source.

Assay: amyloid nucleation score (Sup35N fusion, yeast selection) (log enrichment); library NNK3; higher = more nucleation; inactive = no reads after selection
How it was run: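 After 24 hours of induction with 100 μM copper sulfate, psi-negative yeast expressing peptides of 20 random codons fused to Sup35N were grown for 7 days at 30°C on medium lacking adenine and uracil. Input and output plasmid inserts were sequenced with Illumina, and sequences with under 100 input reads were discarded. Scores for nucleation are the DiMSum log enrichment of output over input reads, centred on the mode score of non-aggregating sequences.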

Substance	amyloid nucleation score
LTYTYGVGVMIGIITHRLVC	inactive
LRYSVEAFTRDDLTESSQVV	inactive
TYTVYLRRYAYYECTFRQFL	inactive
FNGICRWTCYSCS	2.09 ± 0.08
FHMIECGVYAKHLGHCTRYI	-0.079 ± 0.33
FCRPLSCRSIWCHLLPTHLR	inactive
YASDWVRRPGRN	inactive
SKVPYPNLVTCVVLCVGFYV	inactive
LGNTCKIDWRISYHMTPSDI	inactive
MNGNGRFLVERRMLGSKKSV	inactive
PVYERPRCQNFLGCYWSCAQ	inactive
NCYFIQGWSSLMYSKGFNKC	inactive
RLKCHNNMNYSSYDLH	inactive
CANFRV	inactive
VHSFLKYGGNSAIGLLPEDS	inactive
TRKLIDYLFTVKQVLQSKEE	inactive
NDFSPVRWTVLDTDDPK	inactive
SQTLQKDLAPSAKLCKIPGV	inactive
IFCKPWGSSFRIEPVAGTWI	inactive
GNDNYVVLFNCDV	inactive
ANTFKVWPKDICAGTVYM	inactive
SQFTEICTPVRHGSCCR	inactive
THLIIHCLCLFERVFITHVA	inactive

Substance	amyloid nucleation score
SWYEYCLINSLRKGSGYKEP	inactive
VKDSLMGCKIPCN	inactive
YISSFKFRLSCLRYQIVNSV	inactive
RWKMTCFSSYNG	inactive
VTDEIFELSGKVTIDSAEL	inactive
FHYGLSWLSSTKGSYVFYIG	inactive
LNCATFHYLTAVILMEYCRT	inactive
RSVLLKVHTWITKSCFSTGL	inactive
MRRVGIWYVRR	inactive
VEEGFGLMSKIAHSIGLREC	-0.278 ± 1.4
PRRTNRVNKSISSVLSLRIG	0.517 ± 0.57
KYVYFMSVFCEVCSRAHRVV	1.24 ± 0.1
TRYGNW	inactive
TLSDQFDMISWVSK	inactive
VFVVGSVSRCCKKLVT	inactive
VLVIIKSD	inactive
TTRKNLKSGLVVSL	inactive
QTSMVVDDYCILYVLHWGWG	inactive
SGVLLFGVSRMHQR	0.203 ± 0.28
YAFGGQLFAFVLRNENIFSG	1.37 ± 0.085
GNLASICVRLCWLCARLWST	inactive
LSMDLPNQSLDKVSKRHSAN	inactive
TVNWLL	inactive

Substance	amyloid nucleation score
SYSNDHAFVSRVAGCNIC	1.53 ± 0.1
NRYYPVGNYCARTWQTFTFL	inactive
ERSITGYNPPRRV	-0.561 ± 0.82
RDHWNELGRDYGWTLCKKAY	inactive
SRVFARFDEEDRDNSRKRTV	inactive
HQGFE	inactive
LTELSETVPVVKRWKCLDYF	-0.807 ± 1.9
VLDKVKWTLLCNGRRAVAPW	-0.089 ± 1.4
IHCYCS	inactive
LAVTFVHRLCWILLFWD	inactive
GFGGSSAHDRGYETRKSSLE	inactive
SYCYSIAMLAMIFLLMQCVI	-0.011 ± 0.43
EYNPWFDCWICSEVSATNNR	1.96 ± 0.077
TDKRSGVKLNLYFITNTIFA	2.17 ± 0.06
ERKVCAG	inactive
GSYFN	inactive
VCNMYFSFIRNLRGFNRNQC	2.06 ± 0.062
RVKRYSMELGIFLDLRVT	inactive
SFLPSNSFFKYQCVMWC	inactive
INNAPFNLPLANK	inactive
CMRGWNSRVE	inactive
IVCGISMIS	inactive
KGCPVASMAQWNSCMCYVLV	1.08 ± 0.12

Substance	amyloid nucleation score
CNMRVERLMSLFSL	inactive
LASQELLFVRIRDSLAKCGV	inactive
RYYNYVSHIPAHRAVTLSAT	inactive
IMVAMGW	inactive
WANMTFTELSYIK	inactive
QPVTRLFFISGSRGDLVEKH	inactive
DCAYMCNVYFLVLGSAKLFI	1.27 ± 0.17
YENCSMYYSTTGIPAMCEIT	inactive
SCLFRILMQLSTTMNSSVFK	inactive
IESSYFNNNRFGRHVVKQVG	inactive
LFRTDFMQTLLCHTIQLLYP	inactive
TTTRIAMYWYEYMSGCASHY	inactive
HFGYSGFDYYICTRY	0.049 ± 0.27
PRNFVANPVELNKGKDFIPS	inactive
GLCSFR	inactive
FCLVGIFTCRGTLNTLLALH	inactive
LNNSEWSLS	inactive
ERRKIGLKLLRLRQNNGIMA	inactive
WDPGFFWIMAVARFTIACQY	inactive
PWIGVNINSSVLVMVFGGGM	1.97 ± 0.079
TFFVLGCLINLLGMKWTGWV	inactive
MDRIYLHISVEVSASFMSDA	inactive
PNICGLGYYRLWSMLGITCW	inactive

Substance	amyloid nucleation score
GIRVF	inactive
VPDLYSTEDGFSCCVSEYCT	inactive
MFLGNVMTILIEMGFQKALT	0.93 ± 0.17
IGPVVGGYRYMCPASDHK	inactive
SVIGTSTSFCLHWLWGWALC	inactive
SSRINWSASLNSLTVTVD	inactive
TWVVLG	inactive
YNSYK	inactive
AFFPHELRDMFRSNLYCCYA	inactive
IKFVPRA	inactive
GRKAWDEL	inactive
SWRHSCNTRSNDYNIDWE	inactive
ICRLRPLSWMWFAAYSCLFN	inactive
VTNSFSIFSGIIVHSTSLMV	0.032 ± 0.6
VSFYSSCVWIDARSCDYCYF	2.79 ± 0.058
YLFEYSEV	inactive
AIVFNFDYLLYLQNRSNLMH	inactive
TICYGD	inactive
VTWNHSSCSERKRVRMSGWS	0.801 ± 0.14
YYVLPASG	inactive
IYTSFVTMERALSMFSPLFH	inactive
FMTFPRASADRDFFSRVLHL	inactive
GRPRVI	inactive

Substance	amyloid nucleation score
LDMSFSGYTRVLARSISTDA	0.474 ± 0.65
FLAGDWSKGFNKYYTYYISK	inactive
FSAMTPSGRWHDRSRSDVIN	inactive
IVDFFGFNFCSWLSVFSDSR	2.48 ± 0.056
MCYVVNAHGVASQ	inactive
PEAVAAKRPSLQYPFASMTS	inactive
SFERSSSSST	inactive
MLWCLSVSIDFYGGDNRMLT	inactive
RSSVYGQLILVPHYFDCLNL	inactive
WGNISGSA	inactive
MCNFCQLFFTLLITSLFKLG	0.807 ± 0.18
FRGFIAVDAVGMVTNYIIKY	1.89 ± 0.062
SRWLSDSEIENKWFLISDMT	inactive
STNWMVRLFYSRIEWGVNLG	inactive
ILRSLVSLWYGCDCW	0.661 ± 0.16
CMIFGVSLAYVCGCSLYGVG	inactive
SMDVLRFDQYRWLYRVFNLH	inactive
YELFS	0.922 ± 0.11
RRYYLRV	inactive
MMVMWD	inactive
HIVLLKCIQAAETVAGFKW	inactive
QIPSGVVCGMNGYCLGAVTR	inactive
KSICELVIRRNFVSLNIATY	-0.336 ± 0.7

Substance	amyloid nucleation score
QFFCFNRLWDWVTFRVIDMS	inactive
NWQYLNG	inactive
SMRSA	inactive
NAHCMVLMHRAKVWIFMINK	inactive
HHIFVFQGLASLNLHTDWML	1.62 ± 0.1
TLLLL	inactive
SNMNV	inactive
VIGAFRLYNFNVALISSNIS	inactive
CDRTIMRSYDPAL	1.16 ± 0.099
SRSCVACGLY	inactive
LPSLQTG	inactive
SRHFTIEVSQFCIISQGVNL	inactive
HYMLGSLSPVWLFFL	inactive
ECSVSMCEKGITYRSVVERG	inactive
ISMSCNYSW	inactive
DRTHDSSDSCGCCNNL	inactive
GKLSNH	inactive
RSILLEGVLAFM	inactive
MASIVFFCMPSETNFVV	inactive
LYFNRRWWPMRWVRDSPRPS	0.024 ± 0.96
PKFAHSEHVVNSNLFYCVEA	inactive
SFLSYCC	inactive
EAMPHLARGFVVFMCFFRSG	inactive
